In US20080118504A1 (University of California, published 2008):
Where a chain is given by its changes, count along the chain named. Values belong to the binder of their own block, whether it stands above or below them.

Assays:
[1] = target: T1, TLR4 containing N-terminal HA-tag, stably transfected in CHO (EL1) cells (UniProt O00206 24-839, limits assumed); assay: FACS with anti-His and anti-HA on TLR4 transfected EL-1 (CHO) cells, receptor numbers from a microbead standard curve; 0.5 nM sMD-2, 20 min
T1 construct: whole, on cells; also called membrane TLR4; TLR4 transfected EL-1 cells; not shown: N-terminal HA-tag
T1 sequence (O00206 24-839 limits assumed): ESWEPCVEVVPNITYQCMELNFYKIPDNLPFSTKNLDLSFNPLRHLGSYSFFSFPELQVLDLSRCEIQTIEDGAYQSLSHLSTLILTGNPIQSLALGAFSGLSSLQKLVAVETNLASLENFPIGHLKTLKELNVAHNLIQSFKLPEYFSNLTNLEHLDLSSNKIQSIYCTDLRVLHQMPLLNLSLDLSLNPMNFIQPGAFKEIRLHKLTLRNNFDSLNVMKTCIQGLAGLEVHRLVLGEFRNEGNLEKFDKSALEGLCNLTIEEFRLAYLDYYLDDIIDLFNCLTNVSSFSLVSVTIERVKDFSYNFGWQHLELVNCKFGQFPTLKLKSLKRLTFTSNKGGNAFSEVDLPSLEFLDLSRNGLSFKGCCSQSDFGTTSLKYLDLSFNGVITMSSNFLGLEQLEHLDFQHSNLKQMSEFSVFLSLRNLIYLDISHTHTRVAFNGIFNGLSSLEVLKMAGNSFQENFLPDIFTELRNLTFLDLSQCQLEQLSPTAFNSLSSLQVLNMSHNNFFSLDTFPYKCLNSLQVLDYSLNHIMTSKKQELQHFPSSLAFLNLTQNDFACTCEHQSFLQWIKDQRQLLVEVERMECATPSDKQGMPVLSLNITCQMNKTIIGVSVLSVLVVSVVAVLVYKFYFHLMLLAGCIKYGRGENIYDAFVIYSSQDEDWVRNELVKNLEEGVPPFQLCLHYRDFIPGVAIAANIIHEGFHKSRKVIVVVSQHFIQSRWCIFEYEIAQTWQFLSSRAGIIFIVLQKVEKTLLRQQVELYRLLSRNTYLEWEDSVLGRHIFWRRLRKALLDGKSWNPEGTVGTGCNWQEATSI
Protocol: (§1) LPS activation increased with increasing MD-2 levels on the cell surface. TLR4 transfected EL-1 cells (a CHO cell line stably transfected with NF-κB/CD25 reporter plasmid) were incubated with various amount of soluble MD-2 for 20 min. The amount of soluble MD-2 that bound to TLR4 transfected cells as well as the TLR4 expression level were assayed by FACS analysis using antibody to His-tag and HA-tag, respectively. The MD-2 and TLR4 receptor numbers were calculated by converting mean channel number (MCN) of fluorescence intensity using the standard curve generated with Simply Cellular Microbeads. The cells were also activated with 100 ng/ml LPS and NF-κB activation assayed by FACS analysis of surface CD25 expression.
(§2) Various concentrations of sMD-2, plotted on the x-axis, was added to CHO (EL1) cells stably transfected with TLR4. The amount of TLR4 and MD-2 on the cell surface was analyzed by FACS using anti-HA tag and anti-His tag antibody, respectively. The receptor numbers plotted on the left Y-axis were calculated from mean channel number (MCN) and the standard curves generated by simply cellular microbeads. The cells were also activated with 100 ng/ml of LPS.

[2] = target: T1, TLR4 containing N-terminal HA-tag, …; assay: FACS with anti-His and anti-HA on TLR4 transfected EL-1 (CHO) cells, receptor numbers from a microbead standard curve
Protocol: as §1, §2

[3] = target: T1, TLR4 containing N-terminal HA-tag, …; assay: FACS with anti-His tag of purified sMD-2 on TLR4 transfected EL1 (CHO) cells
Protocol: To determine sMD-2 mutants binding to TLR4, the purified proteins were added to TLR4 transfected EL1 cells, washed off excess protein after 15 min or overnight incubation, stained with anti-His tag antibody and analyzed by FACS. FIG. 10 illustrates data showing LPS activation of sMD-2. TLR4 transfected CHO cells harboring CD25 reporter plasmids were activated with 100 ng/ml LPS in the absence and presence of 5 ug/ml of sMD-2 and the NF-κB activation was measured by FACS analysis of CD25 surface expression (MCN) using anti-CD25-PE. […] None of mutants with mostly oligomers remained in association to TLR4 cells after 16 hr. The unglycosylated MD-2 bound normally to TLR4 cells after 15 min but the binding was reduced after 16 hr.

calculated ratio of surface MD-2 per TLR4 [1]: 0.5 MD-2 per TLR4
calculated ratio of MD-2 per TLR4 at maximal LPS activation [2]: ~5 MD-2 per TLR4
B1: soluble MD-2 wild type (human MD-2 with C-terminal His-tag, from insect cells) (other)
chain: EAQKQYWVCNSSDASISYTYCDKMQYPISINVNPCIELKGSKGLLHIFYIPRRDLKQLYFNLYITVNTMNLPKRKEVICRGSDDDYSFCRALKGETVNTTISFSFKGIKFSKGKYKCVVEAISGSPEEMLFCLEFVILHQPNSN
notes: Expressed with the gp64 signal peptide in place of its own; The purified protein is a mixture of monomer and disulfide-linked oligomers; also called sMD-2; sMD-2 WT; not shown: C-terminal V5/His tag of the vector (pBlueBac4.5/V5-His or pBac11)

binding result [3]: no binding (tested: 1 or 5 µg/ml)
B2: soluble MD-2 alanine replacement mutant 127-131 (other)
chain: B1 chain with S111A, K112A, G113A, K114A, Y115A
notes: Expressed as a monomer; also called mutant SKGKY; not shown: C-terminal V5/His tag of the vector
